From the nanobody polyreactivity screen of Harvey et al. (2022)

Experiment: yeast display, Sf9 membrane polyspecificity reagent, FACS + sequencing; frameworks hold sequencing errors
In short: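 A nanobody's polyreactivity label depends on the gate it was sorted from. Yeast display cells were stained with 10% biotinylated, detergent-solubilized Sf9 membrane reagent for 1 hour at 4 °C, enriched on streptavidin microbeads and sorted by FACS. The low and high (top ~1%) gates were set on anti-HA fluorescence for expression and streptavidin fluorescence for reagent binding.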

Sequence	polyreactivity (PSR sort gate)
QVQLQESGGGLVQAGGSLRLSCAASGPISGPHVMGWYRQAPGKEREFVAAINVGANTYYADNVKGRFTISRDNATNTVYLQMNSLKPEDTAVYYCAAVYYGDIGHEYWGQGTQVTVSC	low polyreactivity
QVQLVESGGGLVQAGGSLRLSCAASGSTLLSNAMGWYTQAPGKERELVAAINYSGGRTYYADSVKGRFTISRDNAKNTVYLQMNSLKPEDTAVYYCNALSSGHGSSSRYDYWGQGTQVTVSS	low polyreactivity
QVQLVESGGGIVQAGGSLRLSCAASGSISVPYGMGWYRPAPGKERELVAAITGGSTYYADSVKGRFTISRDNAKNTVYLQMNSLIPEDTAVYYCFDVNTDVLSRVYRGWGYYYWGQGTQVTVSS	low polyreactivity
QVQLVESGGGLVQAGGSLRLSCAASGFTFSSYAMGWYRQAPGKERELVAAISSSGSRTYYADSVKGRFTISRDNAKNTVYLQMNSLKPEDTAVYYCAARPGDGGYYYWGQGTQVTVSS	high polyreactivity
QVQLVESGGGLVQAGGSLRLSCAASGFTFYGNAMGWYRHAPGKERELVAAIRSGGITYYADSVKGRFTISRDNAKNTVYLQMNSLKPEDTSVYYCAAYSDYYLDQWYGYWGQGTQVTVSS	low polyreactivity
QVQLVESGGGLVQAGGSLRLSCAASGRTFVYNAMGWYRQAPGKERELVAAISSSGGSTRYADSVKGRFTISRDNAKNTVYLQMNSLKPEDTAVYYCNRLRYSNRYDSWGQGTQVTVSS	high polyreactivity
QVQLVESGAGLVQAGGSLRLSCAASGSTFSYNAMGWYRQAPGKERELVAAISRRGDSTYYADSVKGRFTISRDNAKNTVYLQMNSLKTEDTAVYYCYAVTYYSHRYFSWYSRKGYDYWGQGTEVTVSS	high polyreactivity
QLQLVESGGGLVQAGGSLRLSCAASGFTFSGYAMGWYRQAPGKERELVAAITKRGGSTYYADSVKGRFTISRDNAKNTVYLQMNSLKPEDTAVYYCAARGYISRYDARANAVQGNYWGQGTQVTVSS	high polyreactivity
QVQLVESGGGLVQAGGSLRLSCAASGSIFSYYTMGWYRQAPGQERELVAAISRRGGRTYYADSVKGRFTISRDNAKNTVYLQMNSLKPEDTAVYYCAAEWAGWNNEMDYWGQVTQVTVSS	high polyreactivity
QVQLVESGGGLVQAGGSLRLSCAASGSIFYGNAMGWYRQAPGKEREFVAGISWYGGSTYYADSVKGRFTISRDNAKNTVYLQMNSLKPEDTAVYYGATVADEPRAYSGYEESDYWGQGTQVTVSS	low polyreactivity
QFQLVESGGGLVQAGGSLRLSCAASGGIFYTYAMGWYRQAPAKERAFVAAISRSGGRTRYADSVKGRFTISRDNAKNTVYLQMNSLKQEDTAVYYCAARVIGAGLLKYDKWGQGTQVTVSS	high polyreactivity
QVQLVESGGGLVQAGGSLRLSCAASGSTFYTNAMGWYRQAPGKERELVAAISNAGSTYYADSVKGRFTISRDNAKNTVYLQMNSLKPEDTAVYYCAADPIGLSSLWFRYSVSDVDYWGQGTQVTVSS	low polyreactivity
QVQRVESGGGLVQAGGSLRLSCAASGKIFGQYAMGRYRQAPGKEREFVAAITWSGGSTYYADSVKGRFTISRDNAKNTVYLQMNSLKPEDTAVYYCAADYGKTHRYDYDYWGQGTQVTVSS	low polyreactivity
QVQLVESGGGLVQAGRSLRLSCAASGSIFRIYAMGWYGQAPGKERELVAAITWSGGGTYYADSVKGRFTNSRDNAKNTVYLQMYSLKPEDTAVYYCAADYWGYDIYYGLSERESWGQGTQVTVSS	high polyreactivity
QVQLVESGGVLVQAGGSLRLSCAASGSIFSYNVMGWYRQAQGKEREFVAAITRSGGSTYYADSVKGRFTISRDNAKNTVYLQMNSLKPEDTAVYYCATAYYYTPFREYYYWGQGTQVTVSS	low polyreactivity
QVQLVESVGGVVQAGGSLGLSCAASGRPFGRNVMGWYRQAPGKERELVAAISRSGGSTYYADSVKGRFTISRDNAKNTVYFQMNSLKPEDTAVYYCAAYSVGDYYWGQGTQVTVSS	high polyreactivity
QVQLVESGGGLVQAGGSLRLSCAASGLIFVDNAMGWYRPAPGKEREVVAAIDSGGSTNYADSVKGRFTISRDNAKNTVYLQMNSLKPEDTAVYYCAADWIYAPWYYQESVEYYYWGQGTQVTVSS	low polyreactivity
QVKLVESGGGLVQAGGSLRLSCAASGSTVVFNTMGWYRQAPGKERELVAAISTGDSTKYADSVKGRFTISRDNAKITVYLQMNSLKPVDTAVDYCAADTQDRTYYGWRQVGGYDYWGQGTQVTVSS	low polyreactivity
QVQLVESGGGFVQAGGSLRLSCAASGLTFYGNVMGWYRQAPGKERELVAAITRRGTSTYYADSVKGRFTLSRDYAKNTVYLQMNRLKPEDTAFYYCAAGTAYSRFGYWGQGTQVTVSS	high polyreactivity
QVQLVESGGGLVQAGGSLRLSCAASGFIFYYYAMGWYRQAPGKEREFVAGISRSGGSTYYADSVKGRFTISRDHAKNTVNLLQNSLKTEDTAVYYCNARPLYHFWYYSGEEYGYWGQGTQVTVSS	high polyreactivity
QVQLRESGAGGRQPAPELLGERQYFYWSADGLVSQAPGKEREFVAGIDRGTITNYADSVRGRFTISRDNAKNTVFRQMNSLKPEDTAVYYCAVPAYGDPRSYYWGQGTHVTVSS	high polyreactivity
QVQLVESGGGLFQAGGSLRLSCAASGRIFSDYAMGWYRQAPGKERELVATITSGDSTNYADSVKGRFTISRDNAKNTVYLQMNSLKPEDTAVYYCNADRFADYDYWGQGTQVTVSS	low polyreactivity
QVQLVESGGGLVQAGCSLRLSCAASGSILWHYAMGWYRPAPGKERELVAAISGSGRTNYADSVKGGFTISRDNAKNTVYLQLNSLKPEDTAVYYGARVHGTSESKYYYWGQGTQVTVSL	low polyreactivity
QVQLVESGGGLVQAGGSLRLSCAASGRTFWKYAMGWYRQAPGKERELVAAITASGARTYYADSVKGRFTISRDNAKNTVYLQMNSLKPEDTAVYYCNAGSVSDRQMDYWGQGTQVTVSS	low polyreactivity
QVQLVESGGGLVQAGGSLRLSCAGSGRTLVLYDRGWSRQAHGKARELVAAITWSGDSTYYADSVKGRFTISRDNAKNTVYLQMNSLKPEDTQVYYCSATYLNAKRGLRDDYWGQGTQVTVSS	low polyreactivity
QVQLVDSGGGLVQAGGSLRLSCAASGYTFGNNARAWYRQAPGKERELVARIRTNGGTTYYADSVKGRFTISRDNAKYTVYLQMNSLKPEDTAVYYCNAYRGYEYDYWGQGTQVTVSS	low polyreactivity
QVQLVESGGGLVQAGGSLRLSCAASGRTIPWNVMGWYRQAPGKERELVATITSRRTSTNYADSVKARFTISRDNAKNTVYLPMNSLKPEDTAVYYCARRTVWGAGHYYYWGQGTQVTVSS	high polyreactivity
QVQLVESGGGLVQAGGSLRLSCAASGRIFRYNAMVWYRQAPGKERELVAAITWSGTSTYYADSLKGRFTLSRDNAKNTVYLHMNSLKPEDTAVYYCNADRVDRELFTFDYWGQGTQVTVSS	high polyreactivity
QVHLVESGGGLVQAGGSLRLSCAASGRTFSTYAMGWYRQAPGKESELVAAISSGGGRTYYADSVKGRFTISRDNAKNTVYLQMNSLKPEDTAVYYCAADRYFRSRRSYEYWGQGTQVTVSS	low polyreactivity
QVQLVESGGCLVQAGGSLRLSCAASGLTFNKNAMGWYRQAPGKEREFVAAITRRGGSTYYADSVKGRFTISRDNAKNTVYLQMNSLKPEDTAVYYCAVYPASVNPYHYDYWGQGTQVTVSS	high polyreactivity
